# Where a SMILES comes first, the peptide text is derived from it. [ ]: non-standard residue; d: D form. The star is where a group is joined. Dolaproine = CO[C@@H]([C@@H]1CCCN1)[C@@H](C)C(=O)O; Dil = CC[C@H](C)[C@H](NC)[C@@H](CC(=O)O)OC; X1 = C[C@@H](N*)[C@@H](O)c1ccccc1; NMeV = CN[C@H](C(=O)O)C(C)C
# B1: P-Cad mab2-L1-P1 (antibody, V domains shown)
# VH: QVQLQQSGPGLVKPSQTLSLTCAISGDSVSSQSAAWNWIRQSPSRGLEWLGRIYYRSKWYNDYALSVKSRITINPDTSKNQFSLQLNSVTPEDTAVYYCARGEGYGREGFAIWGQGTLVTVSS
# VL: DIQMTQSPSSLSASVGDRVTITCRASQTISNTLAWYQQKPGKAPKLLIYAASNLQSGVPSRFSGSGSGTDFTLTISSLQPEDFATYYCQQYLSWFTFGQGTKVEIK
# modifications: maleimide linker-drug L1-P1 on engineered Cys residues of the constant regions (positions not stated), DAR 3.8
# B2: P-Cad mab2-L3-P1 (antibody, V domains shown)
# VH: B1 VH
# VL: B1 VL
# modifications: maleimide linker-drug L3-P1 on engineered Cys residues of the constant regions (positions not stated), DAR 4.0
# B3: P-Cad mab2-L5-P1 (antibody, V domains shown)
# VH: B1 VH
# VL: B1 VL
# modifications: maleimide linker-drug L5-P1 on engineered Cys residues of the constant regions (positions not stated), DAR 3.7
# B4: PCAD-mab2-L7-P2 (antibody, V domains shown)
# VH: B1 VH
# VL: B1 VL
# modifications: linker-drug L7-P2 (structure and conjugation not described in the filing)
# B5: P-Cad mab2-L6-P1 (antibody, V domains shown)
# VH: B1 VH
# VL: B1 VL
# modifications: maleimide linker-drug L6-P1 on engineered Cys residues of the constant regions (positions not stated), DAR 3.8
# B6: P-Cad mab2-L4-P1 (antibody, V domains shown)
# VH: B1 VH
# VL: B1 VL
# modifications: maleimide linker-drug L4-P1 on engineered Cys residues of the constant regions (positions not stated), DAR 3.9
# B7: P-Cad mab2-L2-P1 (antibody, V domains shown)
# VH: B1 VH
# VL: B1 VL
# modifications: maleimide linker-drug L2-P1 on engineered Cys residues of the constant regions (positions not stated), DAR 3.9
# Key:
# FaDu cells = assay: CellTiter-Glo inhibition of cell proliferation and survival, FaDu; format: cell-based, human; details: FaDu cell line
# Experimental: (§1) The antibody drug conjugates were tested against four endogenous cancer cell lines and one isogenic cell line engineered to overexpress the target of interest. FaDu (ATCC No. HTB-43 cultured in Eagle's Minimum Essential Medium+10% FBS), HCC70 (ATCC No. CRL-2315 cultured in RPMI-1640+10% FBS), HCC1954 (ATCC No. CRL-2338 cultured in RPMI-1640+10% FBS) and HT-29 (ATCC No. HTB-38 cultured in McCoy's 5a Medium Modified+10% FBS). The HT-29 cell line was transfected to generate a stable HT-29 cell line expressing the exogenous protein of interest, P-cadherin, HT-29 PCAD+(cultured in McCoy's 5a Medium Modified+10% FBS).
# (§2) The ability of the P-cadherin linker variant antibody drug conjugates to inhibit cell proliferation and survival was assessed using the Promega CellTiter-Glo® proliferation assay.
# (§3) The cell lines were cultured in media that is optimal for their growth at 5% CO2, 37° C. in a tissue culture incubator. […] Cell viability and cell density were determined using a cell counter (Vi-Cell XR Cell Viability Analyzer, Beckman Coulter). […] Plates were incubated at 5% CO2, 37° C. for 5 days in a tissue culture incubator, after which cell viability was assessed through the addition of 25 μL of CellTiter Glo® (Promega, cat #G7573), a reagent which lyses cells and measures total adenosine triphosphate (ATP) content. […]
# HCC1954 cells = assay: CellTiter-Glo inhibition of cell proliferation and survival, HCC1954; format: cell-based, human; details: HCC-1954 cell line
# Experimental: as §1, §2, §3
# HCC70 cells = assay: CellTiter-Glo inhibition of cell proliferation and survival, HCC70; format: cell-based, human; details: HCC-70 cell line
# Experimental: as §1, §2, §3
# HT-29 cells = assay: CellTiter-Glo inhibition of cell proliferation and survival, HT-29; format: cell-based, human; details: HT-29 cell line
# Experimental: as §1, §2, §3
# [1] = molecular target: P-cadherin, exogenous, stably expressed on HT-29 PCAD+ cells (UniProt P22223 108-829, limits assumed); assay: cell-based or functional assay
# P-cadherin, exogenous, stably expressed on HT-29 PCAD+ cells, sequence (P22223 108-829 limits assumed): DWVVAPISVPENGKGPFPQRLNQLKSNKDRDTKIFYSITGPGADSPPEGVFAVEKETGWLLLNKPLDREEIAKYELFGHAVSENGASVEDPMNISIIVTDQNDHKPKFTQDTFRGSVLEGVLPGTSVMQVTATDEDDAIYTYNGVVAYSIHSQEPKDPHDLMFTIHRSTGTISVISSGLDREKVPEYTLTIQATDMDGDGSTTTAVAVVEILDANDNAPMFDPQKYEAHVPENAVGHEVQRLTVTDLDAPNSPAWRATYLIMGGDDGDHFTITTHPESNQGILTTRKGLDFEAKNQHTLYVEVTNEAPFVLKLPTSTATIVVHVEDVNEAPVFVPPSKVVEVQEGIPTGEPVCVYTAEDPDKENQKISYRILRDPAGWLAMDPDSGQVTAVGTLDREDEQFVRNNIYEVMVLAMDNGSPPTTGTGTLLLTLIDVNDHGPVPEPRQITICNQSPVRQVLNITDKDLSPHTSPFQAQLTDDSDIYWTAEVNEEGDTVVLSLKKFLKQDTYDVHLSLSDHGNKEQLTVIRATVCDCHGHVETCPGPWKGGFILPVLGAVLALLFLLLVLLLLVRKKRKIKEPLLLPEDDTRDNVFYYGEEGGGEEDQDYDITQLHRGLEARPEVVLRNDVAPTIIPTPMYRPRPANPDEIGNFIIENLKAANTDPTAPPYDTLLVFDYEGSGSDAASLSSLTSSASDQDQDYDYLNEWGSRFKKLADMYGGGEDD
# [2] = molecular target: P-cadherin, endogenous, on HCC70 human triple negative breast cancer cells (human, UniProt P22223 108-829); assay: cell-based or functional assay
# P-cadherin, endogenous, on HCC70 human triple negative breast cancer cells, sequence (P22223 108-829): as the sequence (P22223 108-829 limits assumed) above
# [3] = value from an individual representative assay
Molecule,Amax (FaDu cells),IC50 (FaDu cells; [3]),Amax (HCC1954 cells),IC50 (HCC1954 cells; [3]),Amax (HCC70 cells),IC50 (HCC70 cells; [3]),Amax (HT-29 cells),IC50 (HT-29 cells; [3]),"Amax, inhibition of cell proliferation and survival (CellTiter-Glo, 5 days), HT-29 PCAD+ cells [1]","IC50 (nM), inhibition of cell proliferation and survival (CellTiter-Glo, 5 days), HT-29 PCAD+ cells [1]","Amax, inhibition of cell proliferation and survival (CellTiter-Glo, 5 days), HCC70 cells [2]","IC50 (nM), inhibition of cell proliferation and survival (CellTiter-Glo, 5 days), HCC70 cells [2]"
"CC[C@H](C)[C@@H]([C@@H](CC(=O)N1CCC[C@H]1[C@H](OC)[C@@H](C)C(=O)N[C@H](C)[C@@H](O)c1ccccc1)OC)N(C)C(=O)[C@@H](NC(=O)[C@@H](NC)C(C)C)C(C)C [Free MMAE, monomethyl auristatin E, reference compound] (H-[NMeV]V[Dil][Dolaproine]-X1)",108.80,0.032 nM,65.26,0.056 nM,49.22,0.022 nM,102.30,0.012 nM,–,–,–,–
B1,–,–,–,–,–,–,–,–,90,0.077 nM,65.1,0.237 nM
B2,–,–,–,–,–,–,–,–,86.8,0.083 nM,105,1.35 nM
B3,–,–,–,–,–,–,–,–,91.6,0.075 nM,65.9,0.32 nM
B4,–,–,–,–,–,–,–,–,–,–,171,0.004 nM
B5,–,–,–,–,–,–,–,–,102,0.069 nM,80.2,0.209 nM
B6,–,–,–,–,–,–,–,–,86.2,0.117 nM,57.2,0.467 nM
B7,–,–,–,–,–,–,–,–,83.9,0.098 nM,51,0.336 nM

# Reference: US20230091510A1, “ANTIBODY DRUG CONJUGATES HAVING LINKERS COMPRISING HYDROPHILIC GROUPS” (priority 2019, published 2023)
